B1: R2R3_2Q tau peptide (peptide)
peptide: KDNIQHVPGGGSVQIVYK
B2: R2R3_3Q tau peptide (peptide)
peptide: KDNIKHVPGGGSVQIVYQ
B3: R1R3_23Q tau peptide (peptide)
peptide: TENLKHQPGGGQVQIVYQ
B4: R1R2_12Q tau peptide (peptide)
peptide: TENLQHQPGGGQVQIINK
B5: R1R3_12Q tau peptide (peptide)
peptide: TENLQHQPGGGQVQIVYK
B6: R1R3_13Q tau peptide (peptide)
peptide: TENLQHQPGGGKVQIVYQ

What was measured:
Assay in all cases: ThT fluorescence aggregation assay + negative-stain TEM
[1] = target: R1R3Ac, R1R3 tau peptide chemically acetylated with N-succinimidyl acetate
[2] = target: R2R3Ac, R2R3 tau peptide chemically acetylated with N-succinimidyl acetate
[3] = target: the molecule itself

Molecule	t1/2max of ThT aggregation [3] [h]	also measured
R1R3Ac, R1R3 tau peptide chemically acetylated with N-succinimidyl acetate		t1/2max of ThT aggregation [1]: 39.8 h
R2R3Ac, R2R3 tau peptide chemically acetylated with N-succinimidyl acetate		t1/2max of ThT aggregation [2]: 98.9 h
B1	72 ± 7.2	
B2	3.84	
B3	< 6	
B4	< 36	
B5	< 36	
B6		binding result [3]: binds

Source: paper PMC9882070 (bioRxiv, 2023)
